Residue numbers refer to the chain shown, from its start.
B1: UGT76G1var65: UGT76G1 variant, mutations A33G_A239V_P382M_Q425E (protein, UniProt Q6VAB4 1-458, looked up, variant A33G A239V P382M Q425E)
UDP-glycosyltransferase 76G1: MENKTETTVRRRRRIILFPVPFQGHINPILQLGNVLYSKGFSITIFHTNFNKPKTSNYPHFTFRFILDNDPQDERISNLPTHGPLAGMRIPIINEHGADELRRELELLMLASEEDEEVSCLITDALWYFAQSVADSLNLRRLVLMTSSLFNFHAHVSLPQFDELGYLDPDDKTRLEEQASGFPMLKVKDIKSAYSNWQILKEILGKMIKQTKASSGVIWNSFKELEESELETVIREIPVPSFLIPLPKHLTASSSSLLDHDRTVFQWLDQQPPSSVLYVSFGSTSEVDEKDFLEIARGLVDSKQSFLWVVRPGFVKGSTWVEPLPDGFLGERGRIVKWVPQQEVLAHGAIGAFWTHSGWNSTLESVCEGVPMIFSDFGLDQMLNARYMSDVLKVGVYLENGWERGEIANAIRRVMVDEEGEYIRENARVLKQKADVSLMKGGSSYESLESLVSYISSL
B2: UGT76G1var69: UGT76G1 variant, mutations S274G_I295T_I335V_L379A (protein, UniProt Q6VAB4 1-458, looked up, variant S274G I295T I335V L379A)
UDP-glycosyltransferase 76G1: B1 UDP-glycosyltransferase 76G1 with G33A, V239A, S274G, I295T, I335V, L379A, M382P, E425Q
B3: UGT76G1var87: UGT76G1 variant, mutations S241I_L243A_V300A_F314S_N409R (protein, UniProt Q6VAB4 1-458, looked up, variant S241I L243A V300A F314S N409R)
UDP-glycosyltransferase 76G1: B1 UDP-glycosyltransferase 76G1 with G33A, V239A, S241I, L243A, V300A, F314S, M382P, N409R, E425Q
B4: UGT76G1var82: UGT76G1 variant, mutations E224D_L243A_F265L_R334H_A352G (protein, UniProt Q6VAB4 1-458, looked up, variant E224D L243A F265L R334H A352G)
UDP-glycosyltransferase 76G1: B1 UDP-glycosyltransferase 76G1 with G33A, E224D, V239A, L243A, F265L, R334H, A352G, M382P, E425Q
B5: UGT76G1var76: UGT76G1 variant, mutations F22Y_A239I_L246F_I295M_R334K (protein, UniProt Q6VAB4 1-458, looked up, variant F22Y A239I L246F I295M R334K)
UDP-glycosyltransferase 76G1: B1 UDP-glycosyltransferase 76G1 with F22Y, G33A, V239I, L246F, I295M, R334K, M382P, E425Q
B6: UGT76G1var81: UGT76G1 variant, mutations A33G_T263S_S274G_V279I_Y397E (protein, UniProt Q6VAB4 1-458, looked up, variant A33G T263S S274G V279I Y397E)
UDP-glycosyltransferase 76G1: B1 UDP-glycosyltransferase 76G1 with V239A, T263S, S274G, V279I, M382P, Y397E, E425Q
B7: UGT76G1var5: UGT76G1 variant, mutations F22Y_I373L_P382M (protein, UniProt Q6VAB4 1-458, looked up, variant F22Y I373L P382M)
UDP-glycosyltransferase 76G1: B1 UDP-glycosyltransferase 76G1 with F22Y, G33A, V239A, I373L, E425Q
B8: UGT76G1var79: UGT76G1 variant, mutations E224D_T284I_V366I_I373L_K393G (protein, UniProt Q6VAB4 1-458, looked up, variant E224D T284I V366I I373L K393G)
UDP-glycosyltransferase 76G1: B1 UDP-glycosyltransferase 76G1 with G33A, E224D, V239A, T284I, V366I, I373L, M382P, K393G, E425Q
B9: UGT76G1var74: UGT76G1 variant, mutations I295T_I373L_S375R_Y397Q_Q432E (protein, UniProt Q6VAB4 1-458, looked up, variant I295T I373L S375R Y397Q Q432E)
UDP-glycosyltransferase 76G1: B1 UDP-glycosyltransferase 76G1 with G33A, V239A, I295T, I373L, S375R, M382P, Y397Q, E425Q, Q432E
B10: UGT76G1var86: UGT76G1 variant, mutations E224A_T284L_V396F_Y397E_I407V (protein, UniProt Q6VAB4 1-458, looked up, variant E224A T284L V396F Y397E I407V)
UDP-glycosyltransferase 76G1: B1 UDP-glycosyltransferase 76G1 with G33A, E224A, V239A, T284L, M382P, V396F, Y397E, I407V, E425Q
B11: UGT76G1var78: UGT76G1 variant, mutations V279I_V300A_V310I_I335V_S357C (protein, UniProt Q6VAB4 1-458, looked up, variant V279I V300A V310I I335V S357C)
UDP-glycosyltransferase 76G1: B1 UDP-glycosyltransferase 76G1 with G33A, V239A, V279I, V300A, V310I, I335V, S357C, M382P, E425Q
B12: UGT76G1var71: UGT76G1 variant, mutations I295M_V300A_K393G_Q432E (protein, UniProt Q6VAB4 1-458, looked up, variant I295M V300A K393G Q432E)
UDP-glycosyltransferase 76G1: B1 UDP-glycosyltransferase 76G1 with G33A, V239A, I295M, V300A, M382P, K393G, E425Q, Q432E
B13: UGT76G1var73: UGT76G1 variant, mutations F22Y_D301N_R334H_Q342E_V396F (protein, UniProt Q6VAB4 1-458, looked up, variant F22Y D301N R334H Q342E V396F)
UDP-glycosyltransferase 76G1: B1 UDP-glycosyltransferase 76G1 with F22Y, G33A, V239A, D301N, R334H, Q342E, M382P, V396F, E425Q
B14: UGT76G1var85: UGT76G1 variant, mutations T284L_G348P_F377C_P382M_N409R (protein, UniProt Q6VAB4 1-458, looked up, variant T284L G348P F377C P382M N409R)
UDP-glycosyltransferase 76G1: B1 UDP-glycosyltransferase 76G1 with G33A, V239A, T284L, G348P, F377C, N409R, E425Q
B15: UGT76G1var67: UGT76G1 variant, mutations E224D_F314S_S375R_Y397E (protein, UniProt Q6VAB4 1-458, looked up, variant E224D F314S S375R Y397E)
UDP-glycosyltransferase 76G1: B1 UDP-glycosyltransferase 76G1 with G33A, E224D, V239A, F314S, S375R, M382P, Y397E, E425Q
B16: UGT76G1var68: UGT76G1 variant, mutations Q342K_G348P_I373L_Y397E (protein, UniProt Q6VAB4 1-458, looked up, variant Q342K G348P I373L Y397E)
UDP-glycosyltransferase 76G1: B1 UDP-glycosyltransferase 76G1 with G33A, V239A, Q342K, G348P, I373L, M382P, Y397E, E425Q
B17: UGT76G1var77: UGT76G1 variant, mutations A239V_F265I_I295T_D301N_K393G (protein, UniProt Q6VAB4 1-458, looked up, variant A239V F265I I295T D301N K393G)
UDP-glycosyltransferase 76G1: B1 UDP-glycosyltransferase 76G1 with G33A, F265I, I295T, D301N, M382P, K393G, E425Q
B18: UGT76G1var70: UGT76G1 variant, mutations E224A_I295T_V300A_G348P (protein, UniProt Q6VAB4 1-458, looked up, variant E224A I295T V300A G348P)
UDP-glycosyltransferase 76G1: B1 UDP-glycosyltransferase 76G1 with G33A, E224A, V239A, I295T, V300A, G348P, M382P, E425Q
B19: UGT76G1var4: UGT76G1 variant, mutations E224D_E231A_F265I (protein, UniProt Q6VAB4 1-458, looked up, variant E224D E231A F265I)
UDP-glycosyltransferase 76G1: B1 UDP-glycosyltransferase 76G1 with G33A, E224D, E231A, V239A, F265I, M382P, E425Q
B20: UGT76G1var66: UGT76G1 variant, mutations F265L_V310I_V366I_A385T (protein, UniProt Q6VAB4 1-458, looked up, variant F265L V310I V366I A385T)
UDP-glycosyltransferase 76G1: B1 UDP-glycosyltransferase 76G1 with G33A, V239A, F265L, V310I, V366I, M382P, A385T, E425Q
B21: UGT76G1var72: UGT76G1 variant, mutations T284L_D301N_K303G_S375R (protein, UniProt Q6VAB4 1-458, looked up, variant T284L D301N K303G S375R)
UDP-glycosyltransferase 76G1: B1 UDP-glycosyltransferase 76G1 with G33A, V239A, T284L, D301N, K303G, S375R, M382P, E425Q
B22: UGT76G1var75: UGT76G1 variant, mutations F41L_A239I_Q266S_S375M_P382M (protein, UniProt Q6VAB4 1-458, looked up, variant F41L A239I Q266S S375M P382M)
UDP-glycosyltransferase 76G1: B1 UDP-glycosyltransferase 76G1 with G33A, F41L, V239I, Q266S, S375M, E425Q
B23: UGT76G1var84: UGT76G1 variant, mutations F22L_Q266S_F314S_A352G_S357C (protein, UniProt Q6VAB4 1-458, looked up, variant F22L Q266S F314S A352G S357C)
UDP-glycosyltransferase 76G1: B1 UDP-glycosyltransferase 76G1 with F22L, G33A, V239A, Q266S, F314S, A352G, S357C, M382P, E425Q
B24: UGT76G1var3: UGT76G1 variant, mutations I295T_S357C_V366I (protein, UniProt Q6VAB4 1-458, looked up, variant I295T S357C V366I)
UDP-glycosyltransferase 76G1: B1 UDP-glycosyltransferase 76G1 with G33A, V239A, I295T, S357C, V366I, M382P, E425Q
B25: UGT76G1var80: UGT76G1 variant, mutations L243P_L379A_S389E_Q425E_Q432E (protein, UniProt Q6VAB4 1-458, looked up, variant L243P L379A S389E Q425E Q432E)
UDP-glycosyltransferase 76G1: B1 UDP-glycosyltransferase 76G1 with G33A, V239A, L243P, L379A, M382P, S389E, Q432E
B26: UGT76G1var83: UGT76G1 variant, mutations I43V_Q342E_S357N_S375R_L379G (protein, UniProt Q6VAB4 1-458, looked up, variant I43V Q342E S357N S375R L379G)
UDP-glycosyltransferase 76G1: B1 UDP-glycosyltransferase 76G1 with G33A, I43V, V239A, Q342E, S357N, S375R, L379G, M382P, E425Q
B27: UGT76G1var88: UGT76G1 variant, mutations A239V_T284I_V310I_Q342K_L379A (protein, UniProt Q6VAB4 1-458, looked up, variant A239V T284I V310I Q342K L379A)
UDP-glycosyltransferase 76G1: B1 UDP-glycosyltransferase 76G1 with G33A, T284I, V310I, Q342K, L379A, M382P, E425Q

Experiment: Directed evolution of UGT76G1, Rebaudioside D to Rebaudioside M, round 1 (Example 26)
Format: biochemical
Conditions: 100 μL fresh lysate, 0.5 mM Rebaudioside D, 30° C., pH 7.2
Outline: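 Conversion and initial rate were determined by HPLC with CAD detection on samples taken at 2, 4, 7 and 24 h. Reactions ran at 30 °C in 50 mM phosphate buffer pH 7.2 with lysate, Rebaudioside D (0.5 mM), UDP-glucose (2.5 mM) and MgCl2 (3 mM).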

Molecule | conversion Reb D to Reb M after 24 h [%] | initial rate [Reb M area/min]
B1 | 1.2 | 3.3E+05
B2 |  | 8.3E+06
B3 |  | 2.1E+07
B4 | 1.1 | 2.5E+05
B5 | 2.6 | 7.2E+05
B6 | 15.0 | 6.5E+06
B7 | 3.5 | 2.3E+06
B8 | 8.5 | 3.8E+06
B9 | 0.6 | 9.6E+04
B10 | 1.6 | 3.8E+05
B11 | 3.2 | 8.2E+05
B12 |  | 2.1E+07
B13 | 0.8 | 8.7E+05
B14 | 1.8 | 4.0E+05
B15 | −2.1 | −5.6E+05
B16 | −1.4 | −1.1E+05
B17 | 1.9 | 4.4E+05
B18 | 24.0 | 8.4E+06
B19 |  | 8.6E+06
B20 | 0.8 | 3.7E+05
B21 |  | 9.1E+06
B22 | 0.8 | −1.3E+05
B23 | 1.2 | 2.3E+05
B24 | 9.6 | 1.6E+06
B25 | 1.0 | 2.1E+05
B26 | 0.5 | 4.3E+04
B27 | 1.6 | 3.8E+05
